{"source": "paper PMC2701625", "molecular_target": "purified human hsp90 (human) (UniProt P07900)", "experiment": "cross-linking"}
{"substance": "purified human hsp90 (from UniProt P07900 1-732) (natural protein)", "values": [{"measurement": "stoichiometry N", "result": 2}]}
